This assay concerns the target Arctic mutant (E22G) amyloid-β 1-42 peptide (human).

With “recombinant human Bri2 BRICHOS domain, monomer (domain or fragment)”, the reduction of the nucleation units generated during Aβ42^arc fibrillization, calculated from the fitted ThT kinetics, with monomeric rh Bri2 BRICHOS up to an equal ratio is 80%.
